From the DeepSol protein solubility set

Experiment: soluble on expression in E. coli; label from the status in PepcDB or PDB records

Row | Sequence | soluble on expression in E. coli
1 | MGSDKIHHHHHHLFDRYEAGETAVLVHIDFSDDERREDLVELQLLVESAGARSVGVITGSRRAPDRKFFVGTGKAEELAAMVAATEAKVVIFNHALSPAQERNLERVCHCRVLDRTTLILDIFAQRARTHEGKLQVELAQLRHMSTRLIRGWTHLERQKGGIGMRGPGETQLETDRRLLRGRIKNINRRLDKVDKQREQSRRSRKRSDLATVSLVGYTNAGKSTLFNGLTSSDVYAADQLFATLDPTLRKLDLPDGAVILADTVGFIRHLPHDLVAAFKATLQETRQAELLLHIVDCADDNMQDNFDQVQDVLKEIDADEIPQLVVCNKIDLLEDFAPRIDYAEDGTPERVWLSAQKGQGFDLLLQAITELVGNIVLELTLKVPATGGHYIGQMYKLDVIEHKDYDDLGNCIVKIRLLDADWRRMIKQSQGELETFVFEASETDVIL | not soluble
2 | MAQERPSCAVEPEHVQRLLLSSREAKKSAYCPYSRFPVGAALLTGDGRIFSGCNIENACYPLGVCAERTAIQKAISEGYKDFRAIAISSDLQEEFISPCGACRQVMREFGTDWAVYMTKPDGTFVVRTVQELLPASFGPEDLQKIQ | soluble
3 | MLPKPGTYYLPWEVSAGQVPDGSTLRTFGRLCLYDMIQSRVTLMAQHGSDQHQVLVCTKLVEPFHAQVGSLYIVLGELQHQQDRGSVVKARVLTCV | not soluble
4 | DYKDDDDKDLKCTTNNMRVWDCTWPAPLGVSPGTVKDICIKDRFHSCHPLETTNVKIPALSPGDHEVTINYLNGFQSKFTLNEKDVSLIPETPEILDLSADFFTSSLLLKWNDRGSALPHPSNATWEIKVLQNPRTEPVALVLLNTMLSGKDTVQHWNWTSDLPLQCATHSVSIRWHIDSPHFSGYKEWSDWSPLKNISWIRNTETNVFPQDKVVLAGSNMTICCMSPTKVLSGQIGNTLRPLIHLYGQTVAIHILNIPVSENSGTNIIFITDDDVYGTVVFAGYPPDVPQKLSCETHDLKEIICSWNPGRITGLVGPRNTEYTLFESISGKSAVFHRIEGLTNETYRLGVQMHPGQEIHNFTLTGRNPLGQAQSAVVINVTERVAPHDPTSLKVKDINSTVVTFSWYLPGNFTKINLLCQIEICKANSKKEVRNATIRGAEDSTYHVAVDKLNPYTAYTFRVRCSSKTFWKWSRWSDEKRHLTTEAT | soluble
5 | MNRMRWVGEGDIWDLDMSTPVTLEGTARAVPDDPLPLGLSRGTRLSRPKQVEFFHRFMASPLIPSFSPIRPNTGDGGGGGFSLQRVLTLPFSNNWLVSLLGQFDVQRFVTEIDKTKAFGRGSSSTVASRLNTIGKHLKDKSLYALGFCSEFLLSPDDTLLLSYDAYKGDLDKNPRAKAIFNHEFPLHNLTAEAVWPGLFVDKHGEYWDVPLSMAIDLASLPAESGPSYHLCLHHNSGSPKKLHSDTMEVPPPSLLPGLSLKSAVSYRTNMDLWRGTTPKLETCKPYDVFLSSPHVAVSGIIGSVMTAAFGENSIRSKFENDSEGVGGFSLHFPSVNSGFMADALGRASLTAQYGNFQKFFFDLTRFHARLDFPHGLRFLTGATSVAQDLLNSRQPSLEAFQKICPEVLVSLQQQIVGPFSFKVESGIEIDLRNGANPVTVDKTVFAIEYALQVLLSAKAVVSYSPKQNEFMVELRFFET | soluble
6 | MNILQFNVRLAEGGAAGVALDLHLRALQKGLTSHFVYGYGKGGKKSVSHHRYPQVIKQTPRGTAIANIALFRFLNRDLFGNLDNLYRTVIQTSGPLVLHFHVLHSYWLNLADIVTFCEKVKAQKPDVTLVWTLHDHWSVTGRCAFTDGCEGWKSGCQKCPTLSNYPPVRVDRAHQLIDGKRQRFRDMLRLGCRFISPSQHVAEAFNSVYGAGRCQIINNGIDLATEAILAQLSPVPLNPGKPRIAIVAHDLRYDGKTDQRLVHDMMALGEKIELHTFGKFSPFTGQNVVNHGFETDKRKLMSALNEMDALVFSSRVDNYPLILCEALSIGVPVIATHSEAAQEVLAKSGGQTFAATDVLRLAQRRKPEIAQAVFGATLDAFRMRSRVAYSGQQMLEEYVSFYQNLLEHHHHHH | not soluble
7 | MGSDKIHHHHHHMKRILFISPTTSMDNGAEKSIYYLMKHLIQLGHTVINVTHAIGGEPQDKHEQLYKMIGVKNYYLPTVKWWWPDAPGGEILNREEATSYYRQNVQDIAEIIDQNEIDLVISNTVNVFQGAIAASCQKVPHFWLIHEFPKNEFAYYADKIDFIEEYSSELFSVTGELNNFLTPLFNKKVHSFISYTEQETKVLKKGNQVRIVSVGRLTEGKNQLELIKAYKTLNRLDIELVFIGGWDSKYKAICDEYIHENKLQKNVKFLGNLDNPWEEVTDRDICVFPSSMETFGLVYVEAILRGLPVILSDNLGHLTAFEIFSAGQIYKLGDIEELVTKLEQVIESFRNFSDRARLDVERLRTLYTPEVAYKEILNSINHLEYTGHQNTNLSHIKELLTLNMHPTRLERYARLISNMATKIRHKLRL | not soluble
8 | MGSDKIHHHHHHAERKNALKVDNGHYYKWKEGNIFYTKTGTGKPILLIHDTDSGASGEEWAKVAKKLAKNNTIYTIDLLGCGRSDKPSIQYTSYMYVQIITAFVDDVIGKPVNVAATNLSTAPVIMANALSKDLFNKIILINPVSLQQLKCIPDKSTKFKQNIINLPIVGTFIYNKLMSPIKVDLLFRNKFISRSQLISDNMKDAYYESAHKGQSRGKYLYSSILSNYINTNIAPALKNLDKDVSIIASTGIKNNMDVINNYHKLNSKCDIIHIANAKLYPQLELPEKTASIIKKIVTN | not soluble
9 | MRAIGLLEFKEITRGVYAADVMLKATPVELLLIDNICPGKLIVLIEGEVSAVKNAISRGKEVFSEGVIEEVVLTNPHPSLSTVFPRKKQSKKLNYNSIGIIETLSVSSAIKAADKAAKGANVEIIDIKIARFLGGKAIVVLGGEISAVKVAIDAGISAVQKGKLVSSTVVANINEKLLEMWV | soluble
10 | MCIVALAWQVFDQIPLCLLSNRDEFYARPTTQLHLWENTPIIAGRDLQSGGTWMGITASGRWAVVTNFRDGHDKKIYDTSRGTLVEDFLLSDLAPIRFAKQLEQRQQHYAGFNLFMGDQSQAVYMSNRGEAPQVLAKGVYVVSNGLMSEHWEKTAHLRKRFTQEFVPMLQAEIAEHDLEYTAWDILEDERKVIPELLPSTGIHPDMEELLSSTFIQSPVYGTRCSNFLRLMKRRWIWAEKTQWGDHAGEMMRMDIQIQLEHHHHHH | not soluble
11 | MGSDKIHHHHHHMTSAIDKNSQLEAQAWELLEESVIFYQGKPIGTVAAHDPESDALNYDQCFLRDFVPSALVFLMYGKAEIVRNFLVETLKLQSHEKQIDCFEPGAGLMPASFKVHFNGNEEFLVADFGEQAIARVPPIDSCMWWILLLRAYEKATGDLSLARQPDFQAGIKLILDLCLVHRFSMYPTMLVPDGAFMIDRRMGVYEHPLEIQVLFYASLRAASELLLPDGDGDSYLGKVNRRLGSLKYHIRNYYWLDLKRLGEIYRYKDNEFGKEIVNKFNINSESIPSWLTEWLPETGGYLAGNLGPGRIDFRFFALGNLMAILTSLASEKESQSIMNLFVQRWQDLIGYMPVKICFPALEGLEWRIVTGCDSKNRAWSYHNGGNWPVLLWLFASAAQKAGRTELAQAAIAIAERRLLKDKFPEYYDGNNGRLIGKEARINQTWSIAGLLTAKKFVENPDYLELISFAEGLEVPGCSL | not soluble
12 | MGMVGFRRSRHRRLGAGCGRAGGCMSGVEVITFGCRLNTYESEVMRAEAEKAGLNNAVLVNTCAVTGEAVRQARQAIRRARRDNPHARIIVTGCAAQTEKQTFADMPEVDAVLGNEEKLKSASYRALPDFGVSAEEKLRVNDIMSIKATAPQMVKHIDGHVRAFIQVQNGCDHRCTFCIIPYGRGNSRSVPMGAVVDQARRLTESGYCEIVLTGVDATSYGADLPGEPSLGYLAKTLLKQVPDIIRLRLSSIDSIEADHHLMDLIADEPRFMPHLHLSLQHGDDMILKRMKRRHLRADAIRFCNEVRSLRPDIAFGADMIAGFPTETEEMLENAATLAEECGISSLHVFPYSPREGTPAVRMPQLDRALVKERAGRLRARGEALKQAHLQNMVGSVQTVLVENSGFAHTDNFTLVAAPDLAPRTLAQVAITGHNGKHLNMKLLAADAALEHHHHHH | not soluble
13 | MMEENKRVLLGMSGGTDSSVAAMRLLEAGYEVTGVTFRFYELNDSTEYLEDARHLAERLGIRHITYDAREIFRKQIIEYFVHEYMVGHTPVPCTLCNNYLKWPLLSKIADEMGIFYIATGHYVRKVKVDDTCYITYAADSDKDQTFFLWGLKQDILRRMLLPMGDITKVEARAFAAERGFQKVAVKRDSLGVCFCPMDYRSFLKMWLVSNCQPQVSVGQPQVSAGQTWSAEVRRGRFVDEKGDFIAWHEGYPFYTVGQRRGLGIHLNRAVFVKEIRPEKNEVVLASLQALEKTEMLLKDWNIVNRERLLGHADIIVKIRYRKQENHCTVTVTLDNFLHVQLHEPLTAIASGQAAAFYKDGLLLGGGIIVE | not soluble
